Source: patent publication US20170218369, “AN ANTAGONISTIC PD-1 APTAMER AND ITS APPLICATIONS IN CANCER THERAPY RELATED APPLICATIONS” (Academia Sinica, published 2017)

Experiments:
[1] = molecular target: PD-1 (programmed cell death protein 1) extracellular domain (UniProt Q15116 Q15116:25-170); experiment: filter; total binding assay
[2] = molecular target: T1, PD-1 (programmed cell death protein 1) (Mus musculus, UniProt Q02242 Q02242:25-169); experiment: ELONA; +++ class; details: tags: His tag, immobilized on Ni-NTA plate; label: 5'-biotin
T1 sequence (Q02242 25-169, one chain of several): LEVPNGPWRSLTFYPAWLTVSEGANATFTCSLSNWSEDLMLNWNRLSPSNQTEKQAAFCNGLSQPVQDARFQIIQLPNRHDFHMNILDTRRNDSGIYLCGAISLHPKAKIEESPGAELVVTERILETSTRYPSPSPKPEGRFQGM
Protocol: (§1) Briefly, 200 ng of histidine-tag labeled PD-1 receptors (His tag-PD1 protein) were coated on nickel-nitrilotriacetic acid (Ni-NTA) coated plates and treated with aptamers conjugated at their 5′ end to biotin (Biotin-PD-1 aptamer). Binding of the aptamers to PD-1 was detected using streptavidin-HRP and ECL substrate. The aptamers tested were:
(§2) The above aptamers were tested for binding to human, mouse, rat, rhesus monkey and/or canine PD-1 using the in vitro PD-1 binding assay depicted in FIG. 9.

[3] = molecular target: T1, PD-1 (programmed cell death protein 1); experiment: ELONA; ++ class; details: tags: His tag, immobilized on Ni-NTA plate; label: 5'-biotin
Protocol: as §1, §2

[4] = molecular target: PD-1 (programmed cell death protein 1) (Homo sapiens, UniProt Q15116 Q15116:25-170); experiment: competition; inhibition of PD-1/PD-L1 interaction; details: tags: His tag, immobilized on Ni-NTA plate
PD-1 (programmed cell death protein 1) (Homo sapiens, UniProt Q15116 Q15116:25-170), sequence (Q15116 25-170, one chain of several): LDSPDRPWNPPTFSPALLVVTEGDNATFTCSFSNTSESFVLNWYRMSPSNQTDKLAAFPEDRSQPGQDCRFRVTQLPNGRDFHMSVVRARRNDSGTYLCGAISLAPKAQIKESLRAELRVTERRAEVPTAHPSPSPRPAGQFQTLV
Protocol: Each of the above aptamer nucleotide sequences were tested for PD-1 antagonistic activity using an in vitro competition assay. Briefly, 200 ng of histidine-tag labeled PD-1 receptors (His tag-PD1 protein) were coated on nickel-nitrilotriacetic acid (Ni-NTA) coated plates and treated with Fc-labeled PDL-1 protein/aptamer mixture. Protein G-HRP and ECL substrate was used to determine the binding signal. The PD-1 antagonistic antibody J116 was used as a positive control and the negative control was performed in the absence of aptamer or antibody. A schematic representation of the competition assay is shown in FIG. 8, panels A and B. Each of the aptamer sequences (Cores 1-6 and Core 1(optimized)) were tested in the in vitro competition assay at a concentration of 200 nM. In the competition assay, each aptamer nucleotide sequence inhibited the interaction between PD-1 and PDL-1 as shown in FIG. 6.

PD-1 (programmed cell death protein 1) extracellular domain, sequence (Q15116 25-170, one chain of several): as above

B1: PD7 (ssDNA)
DNA: TCCCTACGGCGCTAACCTTCCATCTCCCATGCTTAGTCAAACATACGCCACCGTGCTACAAC
For B1, the Kd [1] was 9.7 nM.

B2: PD16 (ssDNA)
DNA: TCCCTACGGCGCTAACTGATCACAAGAATAACTATCCCATCTCCCTGCCACCGTGCTACAAC
B2 gave a Kd [1] of 2.1 nM.

B3: PD7 (5'-biotin) (ssDNA)
DNA: B1 DNA
With B3 the Kd [2] was less than 20 nM.

B4: PD100 (5'-biotin) (ssDNA)
DNA: TCCCTACGGCGCTAACCCTCCCCTAGTATATATTGTCCTCGTCTATGCCACCGTGCTACAAC
B4 was tested, and the Kd [3] was 44.7 nM.

For CCATCTCCC (ssDNA) [Core 1 (5'-biotin)], the Kd [3] was 44.7 nM.

In the case of TATATTGTCC (ssDNA) [Core 2 (5'-biotin)], the Kd [2] is reported as less than 20 nM.

For CCATCTCCC (ssDNA) [Core 1], the IC50 [4] was 31.2 nM.
